# Reference: patent EP3446126B1 (Université Libre de Bruxelles, dated 2024)
# B1: nanobody 4hD29 (VHH)
# VHH: QVQLQESGGGLVQPGGSLRLSCAASGFTFSSNYMTWVRQAPGKGPEWVSGINPDGSSTYYADSVKGRFTISRDNAKNTLYLQMNSLKSEDTALYKCATGAAPRIPTTLRGQGTQVTVSS
# notes: Dromedary nanobody from an immune phage display library; also called Nb 4hD29; 4hD29 Nb
# Target: human DPP6 protein (as used in the affinity analysis) (human, UniProt P42658 117-865, limits assumed)
# Experiment: affinity analysis versus human DPP6 protein; method not stated
# human DPP6 protein (as used in the affinity analysis), sequence (P42658 117-865 limits assumed): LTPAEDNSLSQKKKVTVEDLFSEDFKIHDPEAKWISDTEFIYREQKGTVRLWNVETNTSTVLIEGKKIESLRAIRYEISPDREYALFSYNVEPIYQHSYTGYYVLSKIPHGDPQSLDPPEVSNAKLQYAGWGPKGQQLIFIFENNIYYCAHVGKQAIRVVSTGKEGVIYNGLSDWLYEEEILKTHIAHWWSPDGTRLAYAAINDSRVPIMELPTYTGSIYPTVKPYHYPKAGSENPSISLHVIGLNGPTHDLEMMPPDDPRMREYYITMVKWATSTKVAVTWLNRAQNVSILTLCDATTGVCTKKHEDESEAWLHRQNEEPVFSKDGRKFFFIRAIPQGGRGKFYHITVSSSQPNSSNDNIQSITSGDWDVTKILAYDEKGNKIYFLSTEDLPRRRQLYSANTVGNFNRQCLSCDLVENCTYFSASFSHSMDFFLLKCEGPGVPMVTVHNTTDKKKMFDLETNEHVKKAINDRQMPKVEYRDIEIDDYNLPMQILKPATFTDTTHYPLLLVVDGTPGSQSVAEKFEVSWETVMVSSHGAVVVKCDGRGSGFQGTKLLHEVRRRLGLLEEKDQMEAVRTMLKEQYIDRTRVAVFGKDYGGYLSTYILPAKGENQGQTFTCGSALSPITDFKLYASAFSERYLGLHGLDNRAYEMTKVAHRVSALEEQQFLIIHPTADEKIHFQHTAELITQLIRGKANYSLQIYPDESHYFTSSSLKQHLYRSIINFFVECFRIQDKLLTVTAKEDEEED
binder,measurement,value
B1,Kd,1.2 nM
